The record followed here is patent US20250243277A1 (AVACTA LIFE SCIENCES, published 2025).

The experiment concerns the target T1, human PD-L1-Fc (R&D Systems) (human, UniProt Q9NZQ7 19-239).
T1 construct: Bought from R&D Systems; Biotinylated in-house for the phage selection; also called huPD-L1-Fc; human PD-L1-Fc antigen; not shown: Fc part of the bought fusion
Briefly: soluble Affimer ELISA. (ELISA stands for enzyme-linked immunosorbent assay.)

T1 sequence (Q9NZQ7 19-239 limits assumed): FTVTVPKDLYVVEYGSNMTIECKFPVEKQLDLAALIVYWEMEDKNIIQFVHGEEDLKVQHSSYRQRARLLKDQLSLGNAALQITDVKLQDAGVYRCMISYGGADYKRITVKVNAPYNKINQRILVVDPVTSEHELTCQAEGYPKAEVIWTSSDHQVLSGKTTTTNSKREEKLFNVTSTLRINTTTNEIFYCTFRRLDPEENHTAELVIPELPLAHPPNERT

B1: Clone 232 (designed binder)
chain: MIPGGLSEAKPATPEIQEIVDKVKPQLEEKTGETYGKLEAVQYKTQVVTKHSATFFHGTNYYIKVRAGDNKYMHLKVFKSLIGNGQYWYREDLVLTGYQVDKNKDDELTGF
notes: His-tagged
As to B1, the binding result was “binds”.

B2: Clone 222 (designed binder)
chain: MIPGGLSEAEPATPEIQEIVDKVKPQLEEKTGETYGKLEAVQYKTQVVQRDHFPEFPGTNYYIKVRAGDNKYMHLKVFKSLGHELYALYAEDLVLTGYQVDKNKDDELTGF
notes: His-tagged
Turning to B2, the binding result is “binds”.

B3: Clone 79 (designed binder)
chain: MIPGGLSEAKPATPEIQEIVDKVKPQLEEKTGETYGKLEAVQYKTQVVIWHSEWSYTGTNYYIKVRAGDNKYMHLKVFKSLFTRHSEPWEEDLVLTGYQVDKNKDDELTGF
notes: His-tagged
Consider B3, for which the binding result was “binds”.

B4: Clone 202 (designed binder)
chain: MIPGGLSEAKPATPEIQEIVDKVKPQLEEKTGETYGKLEAVQYKTQVVIRHVIWSYSGTNYYIKVRAGDNKYMHLKVFKSLWERNASLSEEDLVLTGYQVDKNKDDELTGF
notes: His-tagged
As to B4, the binding result was “binds”.

B5: Clone 209 (designed binder)
chain: MIPGGLSEAKPATPEIQEIVDKVKPQLEEKTGETYGKLEAVQYKTQVVIAKEENHWRGTNYYIKVRAGDNKYMHLKVFKSLHYYQDVLYREDLVLTGYQVDKNKDDELTGF
notes: His-tagged
Consider B5, for which the binding result was “binds”.

B6: Clone 230 (designed binder)
chain: MIPGGLSEAKPATPEIQEIVDKVKPQLEEKTGETYGKLEAVQYKTQVVHVSNFIIPHGTNYYIKVRAGDNKYMHLKVFKSLNWEGNDLATEDLVLTGYQVDKNKDDELTGF
notes: His-tagged
Take B6: the binding result is given as “binds”.

B7: Clone 210 (designed binder)
chain: MIPGGLSEAKPATPEIQEIVDKVKPQLEEKTGETYGKLEAVQYKTQVVWEYAGDYLEGTNYYIKVRAGDNKYMHLKVFKSLFHGIWWARVEDLVLTGYQVDKNKDDELTGF
notes: His-tagged
B7: the binding result is reported as “binds”.

B8: Clone 226 (designed binder)
chain: MIPGGLSEAKPATPEIQEIVDKVKPQLEEKTGETYGKLEAVQYKTQVVYKHDDEYGFGTNYYIKVRAGDNKYMHLKVFKSLKWTNRANKPEDLVLTGYQVDKNKDDELTGF
notes: His-tagged
With B8, the binding result is recorded as “binds”.

B9: Clone 216 (designed binder)
chain: MIPGGLSEAKPATPEIQEIVDKVKPQLEEKTGETYGKLEAVQYKTQVVFTEVKPFVEGTNYYIKVRAGDNKYMHLKVFKSLSWNAPFPAGEDLVLTGYQVDKNKDDELTGF
notes: His-tagged
As for B9, the binding result is “binds”.

B10: Clone 34 (designed binder)
chain: MIPGGLSEAKPATPEIQEIVDKVKPQLEEKTGETYGKLEAVQYKTQVVTHLNNNAWTGTNYYIKVRAGDNKYMHLKVFKSLFFHNGKIYREDLVLTGYQVDKNKDDELTGF
notes: His-tagged
Turning to B10, the binding result is recorded as “binds”.

B11: Clone 203 (designed binder)
chain: MIPGGLSEAKPATPEIQEIVDKVKPQLEEKTGETYGKLEAVQYKTQVVYHGPPKEWLGTNYYIKVRAGDNKYMHLKVFKSLFFWKGNGYREDLVLTGYQVDKNKDDELTGF
notes: His-tagged
As to B11, the binding result is reported as “binds”.

B12: Clone 229 (designed binder)
chain: MIPGGLSEAKPATPEIQEIVDKVKPQLEEKTGETYGKLEAVQYKTQVVHSSSKPYIHGTNYYIKVRAGDNKYMHLKVFKSLNWNRPYNDLEDLVLTGYQVDKNKDDELTGF
notes: His-tagged
Turning to B12, the binding result is “binds”.

B13: Clone 21 (designed binder)
chain: MIPGGLSEAKPATPEIQEIVDKVKPQLEEKTGETYGKLEAVQYKTQVVKRPHFLQFSGTNYYIKVRAGDNKYMHLKVFKSLNIGPAKKQLEDLVLTGYQVDKNKDDELTGF
notes: His-tagged
Take B13: the binding result is reported as “binds”.

B14: Clone 228 (designed binder)
chain: MIPGGLSEAKPATPEIQEIVDKVKPQLEEKTGETYGKLEAVQYKTQVVVWTSDDAWQGTNYYIKVRAGDNKYMHLKVFKSLFKFEIYKHTEDLVLTGYQVDKNKDDELTGF
notes: His-tagged
In the case of B14, the binding result was “binds”.

B15: Clone 212 (designed binder)
chain: MIPGGLSEAKPATPEIQEIVDKVKPQLEEKTGETYGKLEAVQYKTQVVYAFITPVTHGTNYYIKVRAGDNKYMHLKVFKSLWLNNFGKNFEDLVLTGYQVDKNKDDELTGF
notes: His-tagged
As to B15, the binding result is given as “binds”.

B16: Clone 221 (designed binder)
chain: MIPGGLSEAKPATPEIQEIVDKVKPQLEEKTGETYGKLEAVQYKTQVVIQDVDWRLWGTNYYIKVRAGDNKYMHLKVFKSLVPSDWSKTIEDLVLTGYQVDKNKDDELTGF
notes: His-tagged
As to B16, the binding result is given as “binds”.

B17: Clone 251 (designed binder)
chain: MIPGGLSEAKPATPEIQEIVDKVKPQLEEKTGETYGKLEAVQYKTQVVATDQDWRKWGTNYYIKVRAGDNKYMHLKVFKSLIPLNWQLQEEDLVLTGYQVDKNKDDELTGF
notes: His-tagged
For B17, the binding result is listed as “binds”.

B18: Clone 206 (designed binder)
chain: MIPGGLSEAKPATPEIQEIVDKVKPQLEEKTGETYGKLEAVQYKTQVVRADVNVIWWGTNYYIKVRAGDNKYMHLKVFKSLPVKYKEILLEDLVLTGYQVDKNKDDELTGF
notes: His-tagged
As to B18, the binding result is “binds”.

B19: Clone 23 (designed binder)
chain: MIPGGLSEAKPATPEIQEIVDKVKPQLEEKTGETYGKLEAVQYKTQVVYWEHHHYGFGTNYYIKVRAGDNKYMHLKVFKSLAWPEIDPPVEDLVLTGYQVDKNKDDELTGF
notes: His-tagged
B19: the binding result is reported as “binds”.

B20: Clone 227 (designed binder)
chain: MIPGGLSEAKPATPEIQEIVDKVKPQLEEKTGETYGKLEAVQYKTQVVYVRWHEYGFGTNYYIKVRAGDNKYMHLKVFKSLSNQLIPQPIEDLVLTGYQVDKNKDDELTGF
notes: His-tagged
For B20, the binding result was “binds”.

B21: Clone 82 (designed binder)
chain: MIPGGLSEAKPATPEIQEIVDKVKPQLEEKTGETYGKLEAVQYKTQVVFWQLHRYGFGTNYYIKVRAGDNKYMHLKVFKSLEWNRLSPLWEDLVLTGYQVDKNKDDELTGF
notes: His-tagged
Turning to B21, the binding result is given as “binds”.

B22: Clone 231 (designed binder)
chain: MIPGGLSEAKPATPEIQEIVDKVKPQLEEKTGETYGKLEAVQYKTQVVARWHWFHHFGTNYYIKVRAGDNKYMHLKVFKSLNPINGQETWEDLVLTGYQVDKNKDDELTGF
notes: His-tagged
For the molecule B22, the binding result was “binds”.

B23: Clone 218 (designed binder)
chain: MIPGGLSEAKPATPEIQEIVDKVKPQLEEKTGETYGKLEAVQYKTQVVWRVYFPDFKGTNYYIKVRAGDNKYMHLKVFKSLDEVDEIPHFEDLVLTGYQVDKNKDDELTGF
notes: His-tagged
With B23, the binding result is “binds”.

B24: Clone 211 (designed binder)
chain: MIPGGLSEAKPATPEIQEIVDKVKPQLEEKTGETYGKLEAVQYKTQVVTHPEDAYSWGTNYYIKVRAGDNKYMHLKVFKSLLKPGGLLDFEDLVLTGYQVDKNKDDELTGF
notes: His-tagged
In the case of B24, the binding result is recorded as “binds”.

B25: Clone 200 (designed binder)
chain: MIPGGLSEAKPATPEIQEIVDKVKPQLEEKTGETYGKLEAVQYKTQVVYGPHHQTYAGTNYYIKVRAGDNKYMHLKVFKSLYALHINRWPEDLVLTGYQVDKNKDDELTGF
notes: His-tagged
B25: the binding result was “binds”.

B26: Clone 215 (designed binder)
chain: MIPGGLSEAKPATPEIQEIVDKVKPQLEEKTGETYGKLEAVQYKTQVVRRVFFPEFPGTNYYIKVRAGDNKYMHLKVFKSLEQPIEGDLWEDLVLTGYQVDKNKDDELTGF
notes: His-tagged
Consider B26, for which the binding result is “binds”.

B27: Clone 214 (designed binder)
chain: MIPGGLSEAEPATPEIQEIVDKVKPQLEEKTGETYGKLEAVQYKTQVVIKIHHGSWEGTNYYIKVRAGDNKYMHLKVFKSLLFWQKQFYREDLVLTGYQVDKNKDDELTGF
notes: His-tagged
Regarding B27, the binding result is reported as “binds”.

B28: Clone 213 (designed binder)
chain: MIPGGLSEAKPATPEIQEIVDKVKPQLEEKTGETYGKLEAVQYKTQVVKQHTKEWAPGTNYYIKVRAGDNKYMHLKVFKSLWNHLYHYPFEDLVLTGYQVDKNKDDELTGF
notes: His-tagged
With B28, the binding result is given as “binds”.

B29: Clone 225 (designed binder)
chain: MIPGGLSEAKPATPEIQEIVDKVKPQLEEKTGETYGKLEAVQYKTQVVDLHTPHYAPGTNYYIKVRAGDNKYMHLKVFKSLWNTLLEFGGEDLVLTGYQVDKNKDDELTGF
notes: His-tagged
On to B29, for which the binding result is “binds”.

B30: Clone 24 (designed binder)
chain: MIPGGLSEAKPATPEIQEIVDKVKPQLEEKTGETYGKLEAVQYKTQVVEEGTPEWAPGTNYYIKVRAGDNKYMHLKVFKSLWSDVLYNDFEDLVLTGYQVDKNKDDELTGF
notes: His-tagged
As for B30, the binding result is on record as “binds”.

B31: Clone 22 (designed binder)
chain: MIPGGLSEAKPATPEIQEIVDKVKPQLEEKTGETYGKLEAVQYKTQVVHRLHFPIYYGTNYYIKVRAGDNKYMHLKVFKSLHFTLPTQHPEDLVLTGYQVDKNKDDELTGF
notes: His-tagged
B31: the binding result was “binds”.

B32: Clone 204 (designed binder)
chain: MIPGGLSEAKPATPEIQEIVDKVKPQLEEKTGETYGKLEAVQYKTQVVSLRPHEQLYGTNYYIKVRAGDNKYMHLKVFKSLHLKLWKIPNEDLVLTGYQVDKNKDDELTGF
notes: His-tagged
Take B32: the binding result is reported as “binds”.

B33: Clone 220 (designed binder)
chain: MIPGGLSEAKPATPEIQEIVDKVKPQLEEKTGETYGKLEAVQYKTQVVNRWNIREFEGTNYYIKVRAGDNKYMHLKVFKSLINVPVTELLEDLVLTGYQVDKNKDDELTGF
notes: His-tagged
B33: the binding result is given as “binds”.
